First the molecules themselves.
B1: Ac-225-macropa-Pelgifatamab (CAR 0.8) (antibody, V domains shown)
VH: QVQLVESGGGVVQPGRSLRLSCAASGFAFSRYGMHWVRQAPGKGLEWVAVIWYDGSNKYYADSVKGRFTISRDNSKNTQYLQMNSLRAEDTAVYYCARGGDFLYYYYYGMDVWGQGTTVTVSS
VL: DIQMTQSPSSLSASVGDRVTITCRASQGISNYLAWYQQKTGKVPKFLIYEASTLQSGVPSRFSGGGSGTDFTLTISSLQPEDVATYYCQNYNSAPFTFGPGTKVDIKR
modifications: macropa chelator complexing 225Ac, coupled via thiourea to the terminal amino group of a Lysine residue; chelator-to-antibody ratio 0.8; chain and position not stated
B2: Ac-225-DOTA-Pelgifatamab CAR 5.7 (antibody, V domains shown)
VH: B1 VH
VL: B1 VL
modifications: p-SCN-Bn-DOTA chelator complexing 225Ac, coupled to the terminal amino group of Lysine residues; chelator-to-antibody ratio 5.7; chain and positions not stated
B3: Ac-225-DOTA-Pelgifatamab CAR 12.7 (antibody, V domains shown)
VH: B1 VH
VL: B1 VL
modifications: p-SCN-Bn-DOTA chelator complexing 225Ac, coupled to the terminal amino group of Lysine residues; chelator-to-antibody ratio 12.7; chain and positions not stated

Sequence of prostate-specific membrane antigen (PSMA) on prostate cancer cell lines (Q04609 whole entry): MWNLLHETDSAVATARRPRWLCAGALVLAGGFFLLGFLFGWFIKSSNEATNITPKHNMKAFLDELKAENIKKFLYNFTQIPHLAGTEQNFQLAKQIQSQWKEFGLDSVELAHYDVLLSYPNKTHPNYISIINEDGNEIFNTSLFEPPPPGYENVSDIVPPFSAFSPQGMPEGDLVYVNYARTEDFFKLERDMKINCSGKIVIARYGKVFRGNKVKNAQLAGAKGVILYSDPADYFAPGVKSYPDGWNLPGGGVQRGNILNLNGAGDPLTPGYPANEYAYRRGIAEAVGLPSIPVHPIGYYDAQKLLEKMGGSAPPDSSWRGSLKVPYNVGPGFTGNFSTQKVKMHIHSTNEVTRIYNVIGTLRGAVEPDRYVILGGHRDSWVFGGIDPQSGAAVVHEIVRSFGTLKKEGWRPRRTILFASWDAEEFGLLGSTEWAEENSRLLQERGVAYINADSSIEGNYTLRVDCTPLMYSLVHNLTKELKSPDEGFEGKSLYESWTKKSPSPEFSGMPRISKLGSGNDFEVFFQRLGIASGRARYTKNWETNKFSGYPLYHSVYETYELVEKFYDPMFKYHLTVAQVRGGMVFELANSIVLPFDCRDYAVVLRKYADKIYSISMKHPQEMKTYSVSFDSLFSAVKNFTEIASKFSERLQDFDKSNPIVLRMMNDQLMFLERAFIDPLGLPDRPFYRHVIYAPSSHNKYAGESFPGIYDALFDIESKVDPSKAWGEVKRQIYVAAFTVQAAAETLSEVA

This test addresses prostate-specific membrane antigen (PSMA) on prostate cancer cell lines (human, UniProt Q04609 1-750). The test can be described thus: cell-based or functional assay.
For B1, the “IC50, in-vitro cytotoxicity (CellTiterGlo), C4-2 cells” value (shortened to “IC50 … C4-2 cells”) came to 0.09 kBq/ml and the “IC50, in-vitro cytotoxicity (CellTiterGlo), MDA-PCa-2b cells” value (“IC50 … MDA-PCa-2b cells” for short) turned out to be 0.05 kBq/ml.

On to B2, for which the “IC50 … C4-2 cells” value was 0.15 kBq/ml and the “IC50 … MDA-PCa-2b cells” value came out at 0.09 kBq/ml.

As to B3, the “IC50 … C4-2 cells” value was determined as 0.29 kBq/ml and the “IC50 … MDA-PCa-2b cells” value stood at 0.2 kBq/ml.

For the origin of these results see patent publication EP4279092A1 (Bayer AG, dated 2023).
